According to patent publication US20240132626A1:

Molecular target: Soluble human cMet extracellular domain (ECD) protein (human) (UniProt P08581)
Assay: SPR, captured via anti-human kappa, soluble ECD injected

Soluble human cMet extracellular domain (ECD) protein (human), sequence (P08581 25-932): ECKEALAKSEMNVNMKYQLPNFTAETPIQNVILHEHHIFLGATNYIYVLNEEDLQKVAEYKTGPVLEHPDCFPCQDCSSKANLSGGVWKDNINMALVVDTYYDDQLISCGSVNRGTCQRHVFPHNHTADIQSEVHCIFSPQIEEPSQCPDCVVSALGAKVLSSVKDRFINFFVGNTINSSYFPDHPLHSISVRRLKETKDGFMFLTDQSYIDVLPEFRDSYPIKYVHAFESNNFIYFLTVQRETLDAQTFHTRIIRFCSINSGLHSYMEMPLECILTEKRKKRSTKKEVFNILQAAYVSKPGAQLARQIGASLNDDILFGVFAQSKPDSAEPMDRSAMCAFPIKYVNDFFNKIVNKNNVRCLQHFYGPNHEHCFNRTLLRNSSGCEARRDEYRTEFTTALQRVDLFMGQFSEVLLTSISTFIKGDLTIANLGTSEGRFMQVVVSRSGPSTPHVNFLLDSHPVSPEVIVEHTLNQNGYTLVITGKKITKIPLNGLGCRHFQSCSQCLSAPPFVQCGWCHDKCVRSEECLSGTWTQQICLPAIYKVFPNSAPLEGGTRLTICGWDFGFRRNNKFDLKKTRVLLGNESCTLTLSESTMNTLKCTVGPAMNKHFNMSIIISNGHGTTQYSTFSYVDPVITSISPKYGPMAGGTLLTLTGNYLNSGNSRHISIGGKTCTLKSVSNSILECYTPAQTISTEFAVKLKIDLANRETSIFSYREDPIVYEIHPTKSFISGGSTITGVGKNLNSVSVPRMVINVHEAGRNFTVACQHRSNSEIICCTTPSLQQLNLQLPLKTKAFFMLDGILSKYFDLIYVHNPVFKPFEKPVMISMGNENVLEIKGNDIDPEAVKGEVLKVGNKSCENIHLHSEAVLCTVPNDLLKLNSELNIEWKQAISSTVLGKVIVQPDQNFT

Kd: 1.3 nM
koff: 0.0001 s⁻¹
kon: 75000 M⁻¹ s⁻¹
B1: MetMAb (antibody, INN chains, looked up, V domains shown)
VH: EVQLVESGGGLVQPGGSLRLSCAASGYTFTSYWLHWVRQAPGKGLEWVGMIDPSNSDTRFNPNFKDRFTISADTSKNTAYLQMNSLRAEDTAVYYCATYRSYVTPLDYWGQGTLVTVSS
VL: DIQMTQSPSSLSASVGDRVTITCKSSQSLLYTSSQKNYLAWYQQKPGKAPKLLIYWASTRESGVPSRFSGSGSGTDFTLTISSLQPEDFATYYCQQYYAYPWTFGQGTKVEIKR
